Experimental findings from publication PMC5988984 are described below.

The assay deals with HIV-1 reverse transcriptase p66 (HIV-1). Put plainly: SEC. (In general: SEC sorts molecules by how far they enter the pores of the column.)

The stoichiometry N is the number of molecules, sites or subunits per partner or assembly.

For the substance “HIV-1 reverse transcriptase p66 (enzyme)”, the stoichiometry N came out at 2.
